For ten sequences, activity (% embryos with deletion) results are on record in patent US20190024073.

Assay in all cases: cell_activity
Data set [1] deals with zebrafish nd4 reverse mitoTALE-nickase-1 (synthetic (Xanthomonas TALE-FokI)?). Conditions: nd4 nickase-1 + nickase-2, zebrafish embryos.
Data set [2] has as its system zebrafish nd4 reverse mitoTALE-nickase-2 (synthetic (Xanthomonas TALE-FokI)?). Conditions: nd4 nickase-1 + nickase-2, zebrafish embryos.
Data set [3] relates to zebrafish nd5 forward mitoTALE-nickase (synthetic (Xanthomonas TALE-FokI)?). Conditions: nd5+atp8 nickases, >90% with nd4 nuclease.
Data set [4] concerns zebrafish nd4 reverse mitoTALE nuclease (synthetic (Xanthomonas TALE-FokI)?). The conditions noted are these: co-injected with nd5 and atp8 nickases; heteroplasmic shift to about 2-10%.
Data set [5] deals with zebrafish nd4 forward mitoTALE-nickase-2 (synthetic (Xanthomonas TALE-FokI)?). The conditions noted are these: nd4 nickase-1 + nickase-2, zebrafish embryos.
Data set [6] deals with zebrafish nd5 reverse mitoTALE-nickase (synthetic (Xanthomonas TALE-FokI)?). The conditions noted are these: nd5+atp8 nickases, >90% with nd4 nuclease.
Data set [7] deals with zebrafish atp8 reverse mitoTALE-nickase (synthetic (Xanthomonas TALE-FokI)?). Conditions: nd5+atp8 nickases, >90% with nd4 nuclease.
Data set [8] relates to zebrafish nd4 forward mitoTALE nuclease (synthetic (Xanthomonas TALE-FokI)?). The conditions noted are these: co-injected with nd5 and atp8 nickases; heteroplasmic shift to about 2-10%.
The subject of data set [9] is zebrafish atp8 forward mitoTALE-nickase (synthetic (Xanthomonas TALE-FokI)?). The conditions noted are these: nd5+atp8 nickases, >90% with nd4 nuclease.
For data set [10], the system named is zebrafish nd4 forward mitoTALE-nickase-1 (synthetic (Xanthomonas TALE-FokI)?). The conditions noted are these: nd4 nickase-1 + nickase-2, zebrafish embryos.

As for “AAGTTCTGGTTTTAA (double strand) [zebrafish nd4 nickase-1 reverse half-site]”, the activity (% embryos with deletion) in [1] was found to be 50. With “ACGAGTTAGAAGCAT (double strand) [zebrafish nd4 nickase-2 reverse half-site]”, the activity (% embryos with deletion) in data set [2] was determined as 50. With “AGGGCTAATGATAGT (double strand) [zebrafish nd5 forward half-site]”, the activity (% embryos with deletion) in data set [3] stood at 30. Take “CGGGTAATAATGATT (double strand) [zebrafish nd4 nuclease reverse half-site]”: in [4], the activity (% embryos with deletion) is more than 90. Turning to “GACTAAAATGAACCT (double strand) [zebrafish nd4 nickase-2 forward half-site]”, the activity (% embryos with deletion) in [5] was 50.

Sequence “GCTAGATGTGGTTGG (double strand) [zebrafish nd5 reverse half-site]” had an activity (% embryos with deletion) in data set [6] of 30. “TAGGTTGAATGTGAT (double strand) [zebrafish atp8 reverse half-site]” returned an activity (% embryos with deletion) in data set [7] of 30. Consider “TATATTCGAAGCTAC (double strand) [zebrafish nd4 nuclease forward half-site]”, for which, in [8], the activity (% embryos with deletion) was more than 90. “TCCTTACTATTATTC (double strand) [zebrafish atp8 forward half-site]” yielded an activity (% embryos with deletion) in [9] of 30.

As to “TTACACCTAATTCCT (double strand) [zebrafish nd4 nickase-1 forward half-site]”, the activity (% embryos with deletion) in data set [10] is 50.
